Assay [1] concerns the target T1, MAGE-C2 peptide on HLA-B*07:02 (human).
T1 peptide: RAREFMELL
The experiment in a line: killing.

Assay [2] deals with T2, MAGE-A1 peptide on HLA-C*07:02 (human).
T2 peptide: VRFFFPSL
Nature of the assay: killing.

Assay [3] has as its target T3, MAGE-A1 peptide on HLA-A*02:01 (human).
T3 peptide: KVLEYVIKV
Nature of the assay: killing.

Assay [4] has as its target T4, PRAME peptide on HLA-A*02:01 (human).
T4 peptide: SLLQHLIGL
Nature of the assay: activation reporter or marker. The source says:
(§1) Reporter HEK293T cells expressing exclusively HLA-A*02:01 and expressing a granzyme B-activated infrared fluorescent protein (IFP) were further engineered to express either MAGE-A1 or PRAME. The MAGE-A1 expressing cells were GFP-labeled, and the PRAME-positive cells were labeled with both GFP and CellTrace™ Violet to enable tracking in downstream flow cytometry readouts. When a TCR-T cell recognizes a target cell, it secretes cytotoxic granules into the target cell, triggering the target cell to become fluorescent (IFP-positive). The two target cells (i.e., PRAME- or MAGE-A1 positive) were mixed at a balanced ratio and co-cultured with MAGE-A1 TCR-T cells, PRAME TCR-T cells, or a multiplex product combining the two TCR-T cells. PRAME TCR-T cells and MAGE-A1 TCR-T cells were engineered from T cells from the same donor. The TCR-T cells corresponded to pan T cells engineered by lentivirus transduction using a delivery vector employing MGTM modification and co-delivering CD8α and CD8β co-receptor as described above (such as a Table 1). Donor-matched non-engineered T cells (NTC) were also included as a control. The experiment then measured the proportion of each subset of target (GFP-positive, MAGE-A1 target; GFP/CTV-positive, PRAME target) getting recognized and targeted by TCR-T cells as measured by the proportion of GFP or GFP/CTV becoming IFP-positive. […]

In assay [5] the target is T5, HPV16 E7 peptide on HLA-A*02:01 (human).
T5 peptide: YMLDLQPET
Nature of the assay: killing.

Assay [6] deals with T4, PRAME peptide on HLA-A*02:01. Nature of the assay: killing.
The target in assay [7] is T3, MAGE-A1 peptide on HLA-A*02:01. Nature of the assay: activation reporter or marker.
Source text: as §1

B1: MAGEC2 TCR 8-3 (TCR, V domains shown)
Valpha: ILNVEQSPQSLHVQEGDSTNFTCSFPSSNFYALHWYRWETAKSPEALFVMTLNGDEKKKGRISATLNTKEGYSYLYIKGSQPEDSATYLCASGSGGATNKLIFGTGTLLAVQP
Vbeta: GEEVAQTPKHLVRGEGQKAKLYCAPIKGHSYVFWYQQVLKNEFKFLISFQNENVFDETGMPKERFSAKCLPNSPCSLEIQATKLEDSAVYFCASSQSRSLRGTEAFFGQGTRLTVV
As to B1, in assay [1], the binding result was “recognises”.

B2: MAGEA1-278-1479 (TCR, V domains shown)
Valpha: EDQVTQSPEALRLQEGESSSLNCSYTVSGLRGLFWYRQDPGKGPEFLFTLYSAGEEKEKERLKATLTKKESFLHITAPKPEDSATYLCAVSYGQNFVFGPGTRLSVLP
Vbeta: EAGVTQSPTHLIKTRGQQATLRCSPISGHTSVYWYQQALGLGLQFLLWYDEGEERNRGNFPPRFSGRQFPNYSSELNVNALELEDSALYLCASSLGQLNTEAFFGQGTRLTVV
With B2, the values for the binding result in assay [2], in assay [3] and in assay [4] were “no recognition”, “recognises” and “no recognition”, respectively.

B3: E7-11-28 (TCR, V domains shown)
Valpha: GQQVMQIPQYQHVQEGEDFTTYCNSSTTLSNIQWYKQRPGGHPVFLIQLVKSGEVKKQKRLTFQFGEAKKNSSLHITATQTTDVGTYFCAGIGSSNTGKLIFGQGTTLQVKP
Vbeta: EPEVTQTPSHQVTQMGQEVILRCVPISNHLYFYWYRQILGQKVEFLVSFYNNEISEKSEIFDDQFSVERPDGSNFTLKIRSTKLEDSAMYFCAITGRVSYEQYFGPGTRLTVT
On to B3, for which, in assay [5], the binding result is listed as “recognises”.

B4: PRAME-425-366 (TCR, V domains shown)
Valpha: AQTVTQSQPEMSVQEAETVTLSCTYDTSESDYYLFWYKQPPSRQMILVIRQEAYKQQNATENRFSVNFQKAAKSFSLKISDSQLGDAAMYFCAYRKTSYDKVIFGPGTSLSVIP
Vbeta: AAGVIQSPRHLIKEKRETATLKCYPIPRHDTVYWYQQGPGQDPQFLISFYEKMQSDKGSIPDRFSAQQFSDYHSELNMSSLELGDSALYFCASSFARLEGRDNEQFFGPGTRLTVL
B4: the results for the binding result in assay [6] and in assay [7] were “recognises” and “no recognition”, respectively.

B5: MAGEA1 TCR 32-41 (TCR, V domains shown)
Valpha: TQLLEQSPQFLSIQEGENLTVYCNSSSVFSSLQWYRQEPGEGPVLLVTVVTGGEVKKLKRLTFQFGDARKDSSLHITAAQPGDTGLYLCAGDESISYGKLTFGQGTILTVHP
Vbeta: DAGVIQSPRHEVTEMGQEVTLRCKPISGHDYLFWYRQTMMRGLELLIYFNNNVPIDDSGMPEDRFSAKMPNASFSTLKIQPSEPRDSAVYFCASSFLGWNEKLFFGSGTQLSVL
Turning to B5, the figures for the binding result in assay [2] and in assay [3] were “recognises” and “no recognition”, respectively.

The values above are taken from US20250288675A1 (published 2025).
